Laboratory results as given in paper PMC9018835, “Regulated interaction of ID2 with the anaphase-promoting complex links progression through mitosis with reactivation of cell-type-specific transcription” (Nature Communications, 2022).

Tests used:
[1] = target: core APC (endogenous, HeLa) (human (endogenous in HeLa)); experiment: cell-based or functional assay
[2] = target: T1, HA-CDH1, in vitro translated (UniProt Q9UM11 1-496); experiment: pull-down; GST-ID2, with or without prior in vitro phosphorylation by CDK1-Cyclin B, incubated with APC immunopurified through FLAG-APC3 from HeLa cells and activated by in vitro translated HA-CDC20 or CDH1; western blot (Fig. 3h); conditions: both partners purified
T1 construct: CDH1/FZR1, generated by PCR and cloned into pcDNA3; also called in vitro translated CDH1; source: in vitro translated
T1 sequence (Q9UM11 whole entry): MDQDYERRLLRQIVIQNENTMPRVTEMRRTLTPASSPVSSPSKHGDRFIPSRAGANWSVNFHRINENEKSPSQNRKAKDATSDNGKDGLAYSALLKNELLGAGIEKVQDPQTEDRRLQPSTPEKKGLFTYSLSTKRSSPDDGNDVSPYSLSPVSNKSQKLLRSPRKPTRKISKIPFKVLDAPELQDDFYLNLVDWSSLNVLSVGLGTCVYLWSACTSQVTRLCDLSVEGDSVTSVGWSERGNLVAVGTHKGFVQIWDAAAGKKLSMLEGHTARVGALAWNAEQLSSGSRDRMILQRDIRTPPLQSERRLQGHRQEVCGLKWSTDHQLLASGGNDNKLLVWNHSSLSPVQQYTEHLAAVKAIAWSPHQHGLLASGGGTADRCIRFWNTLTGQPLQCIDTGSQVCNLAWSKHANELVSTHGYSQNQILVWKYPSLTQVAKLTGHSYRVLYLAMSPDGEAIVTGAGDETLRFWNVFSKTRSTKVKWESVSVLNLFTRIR

| half-life of ID2-S5D in transiently transfected HeLa cells treated with cycloheximide, against ID2 wild type [1] [fold] | binding result [2] | Binder |
| --- | --- | --- |
| ~5 |  | FLAG-ID2-S5D (natural protein, UniProt Q02363 1-134, looked up) MKAFDPVRSVRKNSLSDHSLGISRSKTPVDDPMSLLYNMNDCYSKLKELVPSIPQNKKVSKMEILQHVIDYILDLQIALDSHPTIVSLHHQRPGQNQASRTPLTTLNTDISILSLQASEFPSELMSNDSKALCG |
|  | binds | phospho-S5-GST-ID2 (natural protein, UniProt Q02363 1-134, looked up, phosphoserine at 5 (in vitro phosphorylation by Cyclin B-CDK1), also called CDK1 phosphorylated GST-ID2; source: E. coli BL21(DE3), GST fusion; phosphorylated in vitro by CDK1-Cyclin B) MKAFSPVRSVRKNSLSDHSLGISRSKTPVDDPMSLLYNMNDCYSKLKELVPSIPQNKKVSKMEILQHVIDYILDLQIALDSHPTIVSLHHQRPGQNQASRTPLTTLNTDISILSLQASEFPSELMSNDSKALCG |
|  | binds | GST-ID2 wild type (natural protein, UniProt Q02363 1-134, looked up, also called GST-ID2 WT; recombinant GST-ID2; source: E. coli BL21(DE3), purified GST fusion, immobilised on glutathione sepharose 4B) MKAFSPVRSVRKNSLSDHSLGISRSKTPVDDPMSLLYNMNDCYSKLKELVPSIPQNKKVSKMEILQHVIDYILDLQIALDSHPTIVSLHHQRPGQNQASRTPLTTLNTDISILSLQASEFPSELMSNDSKALCG |
